Measurements as given in article PMC8233713, “Direct Interaction of Polar Scaffolding Protein Wag31 with Nucleoid-Associated Protein Rv3852 Regulates Its Polar Localization” (Cells, 2021).

What was measured:
[1] = target: T1, Wag31 (recombinant, from Wag31-pet28a) (Mycobacterium tuberculosis, UniProt P9WMU1 1-260); assay: co-IP; details: both partners purified
T1 sequence: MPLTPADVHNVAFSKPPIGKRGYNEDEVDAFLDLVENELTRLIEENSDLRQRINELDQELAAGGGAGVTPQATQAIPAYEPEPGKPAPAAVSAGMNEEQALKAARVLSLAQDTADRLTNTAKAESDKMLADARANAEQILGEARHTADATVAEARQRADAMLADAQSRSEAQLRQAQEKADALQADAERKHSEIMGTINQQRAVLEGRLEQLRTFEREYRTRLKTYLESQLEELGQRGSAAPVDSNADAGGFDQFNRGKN

[2] = target: T1, Wag31 (recombinant, from Wag31-pet28a); assay: pull-down; details: both partners purified

B1: 6X His-tagged Rv3852 protein (natural protein)
chain: MPDPQDRPDSEPSDASTPPAKKLPAKKAAKKAPARKTPAKKAPAKKTPAKGAKSAPPKPAEAPVSLQQRIETNGQLAAAAKDAAAQAKSTVEGANDALARNASVPAPSHSPVPLIVAVTLSLLALLLIRQLRRR
notes: also called hexa-histidine tagged Rv3852
binding result [1]: binds

B2: Rv3852-MBP (natural protein)
chain: B1 chain
binding result [2]: binds
